5 molecules from PMC11218997, “Human cytomegalovirus deploys molecular mimicry to recruit VPS4A to sites of virus assembly” (PLOS Pathogens, 2024) can be followed below.

Where a chain is given by its changes, count along the chain named. Names may count otherwise.

The test system of assay [1] is pUL71 (YN fusion, TB71-YN). In words: Bimolecular fluorescence complementation in TB71-YN infected MRC-5 cells. Type of assay: cell-based, HCMV. Conditions: MRC-5 infected with TB71-YN, MOI 1, 5 dpi. From the text:
HCMV strains AD169 [92], Toledo [93], Merlin [94], VR1814 [95] and TB40/E [96] and two clinical isolates (isolates 19 and 20, kindly provided by C. Sinzger, Ulm University Hospital, Germany) were used in this study. This panel was chosen as it covers the most commonly used cell culture passaged strains and two isolates that grow highly cell associated. In addition, bacmid derived viruses were used. Reconstituted virus from bacterial artificial chromosome (BAC) clone TB40-BAC4 of the endotheliotropic HCMV strain TB40/E (accession number EF999921.1.) served as wild type virus (WT) in this study. Generation and propagation of recombinant viruses, TBstop71 and TBrev71 have been described elsewhere. […] The recombinant virus TB71-YN used for bimolecular fluorescence complementation (BiFC) assay, was generated by markerless BAC mutagenesis from BAC clone TB40-BAC4 by inserting the sequences corresponding to a (GGGGS)2-linker sequence, the c-myc-tag and the N-terminal fragment of the yellow fluorescent protein (YFP) variant Citrine, comprising amino acids 1–173 (YN), before the stop codon of the UL71 open reading frame. […]

The target in assay [2] is T1, VPS4A MIT domain (residues 1–84) (human, UniProt Q9UN37 1-84).
T1 construct: human VPS4A, MIT domain, residues 1-84 of UniProt Q9UN37; cloned into pOPT3G with an N-terminal GST and a human rhinovirus 3C site; the tag was removed with 3C protease; also called VPS4 MIT domain; source: E. coli T7 Express lysY/Iq, purified (glutathione Sepharose, 3C cleavage, SEC); not shown: GST, N-terminal, cleaved
T1 sequence (looked up): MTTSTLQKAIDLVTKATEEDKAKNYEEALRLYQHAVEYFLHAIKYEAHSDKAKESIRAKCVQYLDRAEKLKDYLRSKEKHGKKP
Description: ITC; titrants (GST-pUL71, GST-CHMP6 or peptides) titrated into VPS4A MIT domain in the cell; 25°C; 50 mM HEPES pH 8, 100 mM NaCl, 0.5 mM TCEP; 19×2 μL or 12×3 μL injections; one-site binding model. The note with it: both partners purified. For orientation: ITC needs no label: the signal is the heat of the interaction.

The target of assay [3] is T2, VPS4A MIT domain (residues 1–84) (human, UniProt Q9UN37 1-84).
T2 chain: T1 sequence (looked up)
In words: ITC.

Assay [4] has as its system VPS4A-FLAG. In words: Anti-FLAG co-immunoprecipitation from co-transfected HEK293FT cells. Type of assay: cell-based, human. The note with it: 48 h post-transfection, immunoblot. From the text:
(§1) All eukaryotic expression plasmids for pUL71 and pUL71 homologues were generated in the backbone of pEF1/Myc-His C expression vector (Invitrogen) by cloning using restriction enzymes. The open reading frame (ORF) of full-length UL71 was amplified from the HCMV wild-type BAC TB40-BAC4 using the primers ex_71_for and ex_71_rev and was the basis for all further UL71 mutants. C-terminally truncated variants UL71_1–326, UL71_1–320 and UL71_1–314 were generated using primers ex_71_for and respective reverse primers UL71_1–326_rev, UL71_1–320_rev and UL71_1–314_rev. Point mutants PPAA (P315A+P318A), V317D, P315A and P318A of the vMIM2 of pUL71 were generated by fusion PCR. For the example of the PPAA mutant, a first fragment UL71_1-326-PPAA was amplified with the primers ex_71_for and UL71 _1–326_P315A/P318A_rev. A second fragment UL71_320–361 was amplified by using primers UL71_1–361_P315A/P318A-for and ex_71_rev. The final PCR product UL71-PPAA was amplified by using fragment UL71_1-326-PPAA as template and ex_71_for and fragment UL71_320–361 as primers. UL71-V317D, UL71-P315A and UL71-P318A were generated similarly manner using the primers UL71 _1–326_V317D_rev, UL71 _1–326_P315A_rev and UL71 _1–326_P318A_rev, respectively, to generate the first fragment. […]
(Immunoblotting shows a protein as a band on a membrane.)

The test system of assay [5] is VPS4A-FLAG. In words: Co-transfection localisation, immunofluorescence, COS-7 cells. Type of assay: cell-based, human. Conditions: COS-7, 20–24 h post-transfection.
Text: as §1

B1: YC-VPS4A-FLAG: VPS4A-FLAG fused to the C-terminal half of Citrine (protein)
chain: MTTSTLQKAIDLVTKATEEDKAKNYEEALRLYQHAVEYFLHAIKYEAHSDKAKESIRAKCVQYLDRAEKLKDYLRSKEKHGKKPVKENQSEGKGSDSDSEGDNPEKKKLQEQLMGAVVMEKPNIRWNDVAGLEGAKEALKEAVILPIKFPHLFTGKRTPWRGILLFGPPGTGKSYLAKAVATEANNSTFFSVSSSDLMSKWLGESEKLVKNLFELARQHKPSIIFIDEVDSLCGSRNENESEAARRIKTEFLVQMQGVGNNNDGTLVLGATNIPWVLDSAIRRRFEKRIYIPLPEEAARAQMFRLHLGSTPHNLTDANIHELARKTEGYSGADISIIVRDSLMQPVRKVQSATHFKKVCGPSRTNPSMMIDDLLTPCSPGDPGAMEMTWMDVPGDKLLEPVVCMSDMLRSLATTRPTVNADDLLKVKKFSEDFGQES
modifications: left off: Citrine residues 156-239 with A206K (YC), N-terminal, kept | FLAG, C-terminal, kept
Consider B1, for which, in assay [1], the “Citrine fluorescence (BiFC)” value is on record as “Citrine fluorescence was detected”.

B2: YC-VPS4A-FLAG-L64D (protein)
chain: B1 chain with L64D
modifications: left off: Citrine residues 156-239 with A206K (YC), N-terminal, kept | FLAG, C-terminal, kept
B2: the “Citrine fluorescence (BiFC)” value in assay [1] is recorded as “Citrine fluorescence was detected”.

B3: GST-CHMP6 MIM2 (domain or fragment, human, UniProt Q96FZ7 166-181, looked up)
chain: EQIELPEVPSEPLPEK
notes: human CHMP6 MIM2; pGEX4T2, annealed primers pGEX CHMP6 MIM2 fwd and rev; also called GST-tagged CHMP6 MIM2 motif; source: E. coli, purified following bacterial expression; not shown: GST, N-terminal, kept
With B3, in assay [2], binding was characterised by a dissociation constant (Kd) of 5.54 µM, the dH is -2.37 kcal/mol and the “stoichiometry N” value worked out at 0.84. The molecule further gave a Kd in assay [3] of 15.3 µM.

B4: HHV6 pUL44: HA-tagged pUL71 homologue from HHV6 (pU44) (protein)
chain: MGNCFRRLSLFGQPTQAKYEMLCSSDDLETEELTYFLDMTYKDFGVYQNDIISHQKDTETMKTLLGLLPMYKKTKLRHTVMERCLSNCPNHVKDALCVELMKAEKILQTMDVVFMKTLIGEFSMCTDNLNQLLNKFATDQSTLSDVEKINSLIEIDGENSKRLLVELDPILHEETGLYQALPNVVTEAPSEKVKSIRVESEGESV
modifications: left off: HA, C-terminal, kept
Regarding B4, the “co-precipitation by VPS4A-FLAG” value with VPS4A-FLAG [4] was “bind efficiently to co-transfected VPS4A-FLAG”. In addition, in the assay on VPS4A-FLAG [5], the “recruitment of VPS4A-FLAG to juxtanuclear compartments” value is given as “it is recruited”.

B5: HSV-1 pUL51: HA-tagged pUL71 homologue from HSV-1 (pUL51) (protein)
chain: MASLLGAICGWGARPEEQYEMIRAAVPPSEAEPRLQEALAVVNALLPAPITLDDALGSLDDTRRLVKARALARTYHACMVNLERLARHHPGFEAPTIDGAVAAHQDKMRRLADTCMATILQMYMSVGAADKSADVLVSQAIRSMAESDVVMEDVAIAERALGLSAFGVAGGTRSGGIGVTEAPSLGHPHTPPPEVTLAPAARNGDALPDPKPESCPRVSVPRPTASPTAPRPGPSRAAPCVLGQ
modifications: left off: HA, C-terminal, kept
On to B5, for which, in the assay on VPS4A-FLAG [4], the “co-precipitation by VPS4A-FLAG” value is recorded as “do not”. Moreover, the “recruitment of VPS4A-FLAG to juxtanuclear compartments” value in the assay with VPS4A-FLAG [5] is listed as “not recruited to juxtanuclear membranes”.

In general, Kd refers to a measure of binding affinity in units of concentration. High values mean weaker binding, low ones tighter binding. Usually stoichiometry N stands for a count of units in the complex or per binding partner.
